Patent publication US20120023600A1 (Novartis, published 2012)
Numbering of substitutions follows the chain as printed.

Experiments:
[1] = biological target: T1, DKK1-APP (human, UniProt O94907 32-266); experiment: cell-based or functional assay
T1 sequence: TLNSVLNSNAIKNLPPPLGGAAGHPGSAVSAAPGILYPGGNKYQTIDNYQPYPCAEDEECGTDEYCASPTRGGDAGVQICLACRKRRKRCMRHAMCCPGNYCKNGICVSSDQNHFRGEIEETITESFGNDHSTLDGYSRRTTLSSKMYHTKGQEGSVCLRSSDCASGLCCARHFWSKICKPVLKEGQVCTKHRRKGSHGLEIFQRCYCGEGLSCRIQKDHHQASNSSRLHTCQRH

[2] = biological target: T2, recombinant human DKK1 (human, UniProt O94907 32-266); experiment: SPR (Biacore), DKK1 immobilised on CM5 chip, Fab as analyte
T2 construct: also called Dickkopf-1; rhDKK1
T2 sequence: T1 sequence
Description: (§1) Using these clones, kinetic SPR analysis is performed on a. […] The Fab preparations are applied in concentration series of 16-500 nM at a flow rate of 20 μl/min. Association phase is set to 60 s and dissociation phase to 120 s.

[3] = biological target: T3, cynomolgus DKK1 (cynomolgus monkey (Macaca fascicularis), UniProt A0A7N9IE82 32-266); experiment: as above
T3 construct: also called cyno DKK1; monkey DKK1 (Novartis)
T3 sequence: T1 sequence with H114N, T150S, S166T
Description: as §1

[4] = biological target: T2, recombinant human DKK1; experiment: as above; remark: listed apart in the source
Description: as §1

[5] = biological target: T3, cynomolgus DKK1; experiment: as above; remark: listed apart in the source
Description: as §1

[6] = biological target: T1, DKK1-APP; experiment: cell-based or functional assay; remark: listed apart in the source
[7] = biological target: T4, mouse DKK1 (R&D Systems) (mouse, UniProt O54908 32-272); experiment: Cross-reactivity mouse (grade in Table 4)
T4 construct: Bought protein
T4 sequence (looked up): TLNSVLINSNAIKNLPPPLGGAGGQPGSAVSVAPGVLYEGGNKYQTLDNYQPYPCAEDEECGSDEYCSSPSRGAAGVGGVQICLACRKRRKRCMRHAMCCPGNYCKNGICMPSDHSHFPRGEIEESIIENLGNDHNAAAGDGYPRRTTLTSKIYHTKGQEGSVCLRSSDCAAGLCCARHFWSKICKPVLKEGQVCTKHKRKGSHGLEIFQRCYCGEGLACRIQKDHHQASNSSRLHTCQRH

[8] = biological target: T2, recombinant human DKK1; experiment: SPR (Biacore), DKK1 immobilised on CM5 chip, Fab as analyte; remark: listed apart in the source
Description: as §1

[9] = biological target: T3, cynomolgus DKK1; experiment: as above; remark: listed apart in the source
Description: as §1

[10] = biological target: T5, wild type (WT) rhDKK1 (HEK HIS epitope tagged Batch# BTP7757) (human, UniProt O94907 32-266, N-glycosylated (one theoretical N-linked site at amino acid 256)); experiment: SPR (Biacore T100), antibody captured by anti-human IgG1 Fc, DKK in flow; average of three experiments
T5 construct: Made in HEK cells; also called WT DKK1; rhDKK1 (recombinant human DKK1) (Batch BTP7757)
T5 sequence: T1 sequence
Description: (§2) FIG. 6. […] Anti-Human IgG1 Fc (Jackson Immuno Research, Cat#109-006-098) is immobilized onto each flow cell, followed by capture of a lead candidate at an expected capture of about 100 RU. […] The normalized data (background subtracted) are fit to a 1:1 binding with mass transport model using Kinetics analysis in BIA evaluation 1.0 software. This experiment is carried out in triplicate, and data presented are the average of these three experiments with standard deviation.

[11] = biological target: T6, human DKK4 (human, UniProt Q9UBT3 19-224); experiment: as above
T6 construct: also called Dickkopf-4
T6 sequence: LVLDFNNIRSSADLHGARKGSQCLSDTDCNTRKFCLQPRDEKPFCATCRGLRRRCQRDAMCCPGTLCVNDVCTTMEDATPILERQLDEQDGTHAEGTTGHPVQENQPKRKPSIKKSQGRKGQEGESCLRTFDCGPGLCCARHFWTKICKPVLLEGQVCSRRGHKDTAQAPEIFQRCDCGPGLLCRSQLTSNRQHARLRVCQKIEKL
Description: as §2

[12] = biological target: T5, wild type (WT) rhDKK1 (HEK HIS epitope …); experiment: SPR (Biacore T100)
[13] = biological target: T7, N-linked deglycosylated rhDKK1 (human, UniProt O94907 32-266, N-linked glycan removed with the enzyme PNGase F); experiment: SPR (Biacore T100)
T7 construct: Same HIS-tagged HEK protein as WT rhDKK1 (Batch BTP7757) after PNGase F treatment; also called N-DEGLY DKK1; DKK1 (N-degly)
T7 sequence: T1 sequence

[14] = biological target: T8, rat DKK1 (Novartis) (rat, UniProt A6I0Z0 32-270); experiment: cell-based or functional assay
T8 sequence: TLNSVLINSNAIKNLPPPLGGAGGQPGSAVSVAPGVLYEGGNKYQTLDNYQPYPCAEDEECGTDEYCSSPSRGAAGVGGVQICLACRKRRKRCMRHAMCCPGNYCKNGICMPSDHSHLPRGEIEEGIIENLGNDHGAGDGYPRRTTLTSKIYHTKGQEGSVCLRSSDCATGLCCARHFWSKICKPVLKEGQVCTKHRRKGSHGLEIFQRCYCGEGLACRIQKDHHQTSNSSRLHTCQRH

[15] = biological target: T2, recombinant human DKK1; experiment: cell-based or functional assay
[16] = biological target: T4, mouse DKK1 (R&D Systems); experiment: cell-based or functional assay
[17] = biological target: T3, cynomolgus DKK1; experiment: cell-based or functional assay
[18] = biological target: T2, recombinant human DKK1; experiment: cell-based or functional assay; remark: listed apart in the source
[19] = biological target: T7, N-linked deglycosylated rhDKK1; experiment: SPR (Biacore T100); remark: listed apart in the source
[20] = biological target: T6, human DKK4; experiment: SPR (Biacore T100)
[21] = biological target: human DKK3 (human, UniProt Q9UBP4 22-350); experiment: SPR (Biacore T100); NSB = No Significant binding, not detectable above background
[22] = biological target: T5, wild type (WT) rhDKK1 (HEK HIS epitope …); experiment: SPR, Biacore T100, CM5 chip; antibody captured on immobilised anti-human IgG1 Fc, rhDKK1 0.195-6.25 nM as analyte; 1:1 binding with mass transport; mean of three experiments with standard deviation [6B]
Description: as §2

[23] = biological target: T9, carboxyl terminal truncated DKK1 (deltaC, residues 1-185) with C-terminal HA epitope (Homo sapiens (Human), UniProt O94907 32-185); experiment: immunoprecipitation from conditioned medium of transfected Hek293 cells, protein G beads, SDS-PAGE, anti-HA blot [panel B.]
T9 construct: Secreted into conditioned medium of transfected Hek293 cells; Contains Cys-1 but not Cys-2
T9 sequence: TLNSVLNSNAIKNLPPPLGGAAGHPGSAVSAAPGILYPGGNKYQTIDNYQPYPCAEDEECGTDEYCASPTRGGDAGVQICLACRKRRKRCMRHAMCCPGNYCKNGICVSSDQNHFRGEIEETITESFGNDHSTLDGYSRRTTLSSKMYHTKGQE
Source text: Full-length (FL, containing residues 1-266), carboxyl terminal truncated (ΔC, containing residues 1-185), and amino terminal truncated (ΔN, containing residues 1-60 plus residues 157-266), are fused with an HA epitope at their C termini, and Cloned into a mammalian expression vector under the control of the cytomegalovirus (CMV) promoter. […] 1/10 of total input is loaded as control.

[24] = biological target: T10, human DKK2 (human, UniProt Q9UBU2 34-259); experiment: immunoprecipitation
T10 construct: tested by immunoprecipitation
T10 sequence: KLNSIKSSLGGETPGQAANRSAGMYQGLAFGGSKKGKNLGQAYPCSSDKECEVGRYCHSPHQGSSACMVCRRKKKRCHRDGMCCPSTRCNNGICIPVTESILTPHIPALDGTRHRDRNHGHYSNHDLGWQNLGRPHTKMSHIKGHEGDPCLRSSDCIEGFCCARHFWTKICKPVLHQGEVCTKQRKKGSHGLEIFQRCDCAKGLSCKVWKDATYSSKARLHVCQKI

[25] = biological target: T8, rat DKK1 (Novartis); experiment: solution equilibrium titration (SET), ECL (BioVeris), IgG
Source text: (§3) Electrochemiluminescence (ECL) based affinity determination in solution and data evaluation are basically performed as described by [Haenel et al., 2005], the binding fit model is applied as modified according to [Piehler et al., 1997]). […] Biotinylated human. […] Subsequently, the concentration of unbound. IgG is quantified via ECL detection using the M-384 SERIES® analyzer (BioVeris, Europe).

[26] = biological target: T2, recombinant human DKK1; experiment: as above
Source text: as §3

[27] = biological target: T4, mouse DKK1 (R&D Systems); experiment: as above
Source text: as §3

[28] = biological target: T3, cynomolgus DKK1; experiment: as above
Source text: as §3

Sequence of human DKK3 (Q9UBP4 other isoform, or with tags, fused parts or gaps limits assumed): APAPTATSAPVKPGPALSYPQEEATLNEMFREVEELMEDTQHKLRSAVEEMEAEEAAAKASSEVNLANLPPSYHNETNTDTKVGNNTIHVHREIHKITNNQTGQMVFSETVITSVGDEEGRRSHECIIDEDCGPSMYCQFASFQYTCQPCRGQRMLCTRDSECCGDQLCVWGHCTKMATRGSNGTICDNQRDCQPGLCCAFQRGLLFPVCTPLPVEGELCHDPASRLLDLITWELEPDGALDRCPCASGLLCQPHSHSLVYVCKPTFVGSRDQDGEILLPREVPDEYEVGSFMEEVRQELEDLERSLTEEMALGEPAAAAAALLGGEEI

B1: MOR04455 (Fab, V domains shown)
VH: QVQLVESGGGLVQPGGSLRLSCAASGFTFSSYGMSWVRQAPGKGLEWVSGISGSGSYTYYADSVKGRFTISRDNSKNTLYLQMNSLRAEDTAVYYCARHYMDHWGQGTLVTVSS
VL: DIQMTQSPSSLSASVGDRVTITCRASQDISNYLHWYQQKPGKAPKLLIYGASNLQSGVPSRFSGSGSGTDFTLTISSLQPEDFAVYYCQQYDSIPMTFGQGTKVEIKR
notes: Fab with C-terminal FLAG and 6xHis tags
[1]
  Luciferase reporter assay; EC50: 39 nM
[2]
  Kd: 1.6 nM
[3]
  Kd: 1.5 nM
[4]
  Kd: 1.6 nM
[5]
  Kd: 1.5 nM
[6]
  EC50: 39 nM
[7]
  binding result: binds
[8]
  Kd: 1.6 nM
[9]
  Kd: 1.5 nM

B2: anti-DKK1/4 antibody (antibody, V domains shown)
VH: QVQLVESGGGLVQPGGSLRLSCAASGFTFSSYWMSWVRQAPGKGLEWVSGISYSGSNTHYADSVKGRFTISRDNSKNTLYLQMNSLRAEDTAVYYCARMGIDLDYWGQGTLVTVSS
VL: DIALTQPASVSGSPGQSITISCTGTSSDVGGFNYVSWYQQHPGKAPKLMIHDGSNRPSGVSNRFSGSKSGNTASLTISGLQAEDEADYYCQSWDVSPITAVFGGGTKLTVLG
notes: also called neutralizing anti-DKK1/4 antibody; NVP-anti-DKK1/4 antibody-NX
[10]
  Kd: 0.002 nM
[11]
  Kd: 0.297 nM
[12]
  Kd: 0.00311 nM
  koff: 2.32e-05 s⁻¹
  kon: 7.45e+06 M⁻¹ s⁻¹
[13]
  Kd: 0.216 nM
  koff: 0.000307 s⁻¹
  kon: 1.42e+06 M⁻¹ s⁻¹
[14]
  Reactivation of wnt3a signaling (TOPFlash) EC50 (pM): 255 pM
[15]
  Reactivation of wnt3a signaling (TOPFlash) EC50 (pM): 80.6 pM
[16]
  Reactivation of wnt3a signaling (TOPFlash) EC50 (pM): 60.5 pM
[17]
  Reactivation of wnt3a signaling (TOPFlash) EC50 (pM): 54.2 pM
[18]
  apparent EC50, TCF/LEF luciferase reporter (SuperTopflash, Kremen) assay: 0.16 nM
[19]
  fold lower affinity than for WT DKK1: 100 fold
[20]
  fold lower affinity than for DKK1: ~100 fold
[21]
  binding result: no binding
[22]
  koff: 9e-06 s⁻¹
  kon: 4.6e+06 M⁻¹ s⁻¹
[23]
  binding result: no binding
[24]
  binding result: no binding

B3: MOR4910 IgG (antibody, V domains shown)
VH: B2 VH
VL: B2 VL
notes: also called MOR04910 IgG
[25]
  Kd: 0.016 nM
[26]
  Kd: 0.017 nM
[27]
  Kd: 0.01 nM
[28]
  Kd: 0.007 nM
